Publication PMC9655291

Columns and labels:
[1] = target: eel FSHR-N120Q (eel)
[2] = target: eel FSHR-N272Q (eel)
[3] = target: eel FSHR-N288Q (eel)
[4] = target: eel follicle-stimulating hormone receptor wild-type (eel)

EC50 of cAMP accumulation (HTRF) in transfected CHO-K1 cells stimulated with rec-eel FSH, 0.01-1500 ng/mL [1]: 0.283 µg/mL
EC50 of cAMP accumulation (HTRF) in transfected CHO-K1 cells stimulated with rec-eel FSH, 0.01-1500 ng/mL [2]: 0.327 µg/mL
EC50 of cAMP accumulation (HTRF) in transfected CHO-K1 cells stimulated with rec-eel FSH, 0.01-1500 ng/mL [3]: 0.281 µg/mL
EC50 of cAMP accumulation (HTRF) in transfected CHO-K1 cells stimulated with rec-eel FSH, 0.01-1500 ng/mL [4]: 0.201 µg/mL
Substance: recombinant eel FSH (tethered eel FSH β/α) (ligand)
